According to patent US20260137794A1, “LIGAND-DRUG CONJUGATE AND USE THEREOF” (SYSTIMMUNE, INC., priority 2022, published 2026):

Biological target: recombinant human CD33 protein (human, UniProt P20138 18-259, limits assumed)
Experiment: ELISA, recombinant human CD33 coated on the plate, antibody as comparator

Sequence of recombinant human CD33 protein (P20138 18-259 limits assumed): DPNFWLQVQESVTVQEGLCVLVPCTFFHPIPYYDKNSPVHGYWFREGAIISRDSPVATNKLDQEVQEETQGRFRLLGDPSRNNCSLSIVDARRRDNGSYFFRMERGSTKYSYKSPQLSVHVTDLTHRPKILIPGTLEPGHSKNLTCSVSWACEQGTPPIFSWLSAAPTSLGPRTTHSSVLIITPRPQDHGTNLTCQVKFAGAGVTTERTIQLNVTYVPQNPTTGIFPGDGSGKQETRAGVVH

B1: anti-CD33 antibody ANTI-CD33 (antibody, human IgG1, kappa, V domains shown)
VH: EVQLVQSGAEVKKPGSSVKVSCKASGYTITDSNIHWVRQAPGQSLEWIGYIYPYNGGTDYNQKFKNRATLTVDNPTNTAYMELSSLRSEDTAFYYCVNGNPWLAYWGQGTLVTVSS
VL: DIQLTQSPSTLSASVGDRVTITCRASESLDNYGIRFLTWFQQKPGKAPKLLMYAASNQGSGVPSRFSGSGSGTEFTLTISSLQPDDFATYYCQQTKEVPWSFGQGTKVEVKR
notes: also called ANTI-CD33 mAb; naked anti-CD33 antibody
Question: Does B1 bind?
Answer: binds
